Measurements published in US20250251406A1.
pIC50: −log10 of the molar value.

What was measured:
[1] = molecular target: IL-17A/A dimer (Homo sapiens (Human)) (UniProt Q16552)
[2] = molecular target: IL-17A/F dimer (Homo sapiens (Human)) (UniProt Q16552)
[3] = molecular target: IL-17A/A dimer (Homo sapiens (Human)) (UniProt Q16552); test: Alphascreen (protein-protein interaction assay); inhibition of IL17AA with IL-17RA
[4] = molecular target: IL-17A/F dimer (Homo sapiens (Human)) (UniProt Q16552); test: Alphascreen (protein-protein interaction assay); inhibition of IL17AF with IL-17RA
[5] = molecular target: IL-17F/F dimer (Homo sapiens (Human)) (UniProt Q96PD4); test: Alphascreen (protein-protein interaction assay); inhibition of IL17FF with IL-17RC
Sequence of UniProt Q96PD4 (Q96PD4 31-163 limits assumed): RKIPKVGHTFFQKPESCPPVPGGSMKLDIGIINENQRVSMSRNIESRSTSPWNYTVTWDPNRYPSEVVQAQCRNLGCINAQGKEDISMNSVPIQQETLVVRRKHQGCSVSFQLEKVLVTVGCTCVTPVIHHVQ

% inhibition of CCL20 expression (TNF + IL17A/A stimulation) in keratinocytes, SLK 0.1 µg/mL [1]: -66% | % inhibition of CCL20 expression (TNF + IL17A/A stimulation) in keratinocytes, SLK 1 µg/mL [1]: -66% | % inhibition of CXCL8 expression (TNF + IL17A/A stimulation) in keratinocytes, SLK 0.1 µg/mL [1]: -73% | % inhibition of CXCL8 expression (TNF + IL17A/A stimulation) in keratinocytes, SLK 1 µg/mL [1]: -88% | % inhibition of CCL20 expression (TNF + IL17A/F stimulation) in keratinocytes, SLK 0.1 µg/mL [2]: -75% | % inhibition of CCL20 expression (TNF + IL17A/F stimulation) in keratinocytes, SLK 1 µg/mL [2]: -53% | % inhibition of CXCL8 expression (TNF + IL17A/F stimulation) in keratinocytes, SLK 0.1 µg/mL [2]: -61% | % inhibition of CXCL8 expression (TNF + IL17A/F stimulation) in keratinocytes, SLK 1 µg/mL [2]: -68% | pIC50 [3]: 10.41 | pIC50 [4]: 10.18 | pIC50 [5]: 10.89
Substance: sonelokimab (VHH)
